Laboratory results reported in patent publication CN114002427A (dated 2022).

Molecular target: T1, 新型冠状病毒核衣壳蛋白 (SARS-COV-2, UniProt P0DTC9 1-419)
T1 construct: also called SARS-COV-2 nucleocapsid protein; 新型冠状病毒核衣壳蛋白抗原
Assay: ELISA screening of hybridomas for antigen-specific antibodies

B1: mAb#9 (antibody, V domains shown)
VH: EVQLVESGGGLVKPGGSLKLSCAASGITFSDYYMYWVRQTPEKRLEWVATISDGGSYTYYPDSVKGRFTISRDNAKNNLYLQMSSLKSEDTAMYYCVRDKSMGFGAWFAYWGQGTLVTVSA
VL: EIVLTQSPTTMAASPGEKITITCSASSSISSNYLHWYQQRPGFSPKLLIYRTSNLASGVPARFSGSGSGTSYSLTIGTMEAEDVATYYCQQGHSIPYTFGGGTKLEIK
notes: also called 新型冠状病毒核衣壳抗体(mAb#9); 第二新型冠状病毒核衣壳蛋白抗体
binding result: binds
